The results in this text go back to patent US20070105771A1 (Y S THERAPEUTICS, published 2007).

What all share (experiment): peptide microarray
The target in test [1] is T1, human CD26-derived 13 mer peptide 68 (human).
T1 peptide: SYRITWTGKEDII
The method, then:
(§1) The overnight incubation was followed by three washings with each of PBS buffer pH 7.5 and water. The microarrays were then scanned using ArrayWorx-Microarray Scanner.
(§2) The SPOT recognition software package ArrayPro was used for data analysis. The mean of signal intensities from 3 identical subarrays on each microarray image was used for data evaluation.

Test [2] addresses T2, human CD26-derived 13 mer peptide 94 (human).
T2 peptide: PLIEYSFYSDESL
As to the method: as §1, §2

The target in test [3] is T3, human CD26-derived 13 mer peptide 98 (human).
T3 peptide: SDESLQYPKTVRV
As to the method:
as §1, §2

Test [4] addresses T4, human CD26-derived 13 mer peptide 100 (human).
T4 peptide: LQYPKTVRVPYPK
As to the method:
as §1, §2

The target of test [5] is T5, human CD26-derived 13 mer peptide 41 (human).
T5 peptide: YTASYDIYDLNKR
As to the method: as §1, §2

B1: rhuMAb 411 (antibody, human IgG1, kappa, V domains shown)
VH: EVQLVESGAGVKQPGGTLRLTCTASGFSLTTYGVHWVRQAPGKGLEWVGVIWGDGRTDYDAAFMSRVTISKDTSKSTVYLQMNSLRAEDTAVYYCMRNRHDWFDYWGQGTTVTVSS
VL: DILLTQSPSSLSATPGERATITCRASQGIRNNLNWYQQKPGQAPRLLIYYSSNLQSGVPSRFSGSGSGTDFTLTISRLQPEDVAAYYCQQSIKLPFTFGSGTKVEIKR
notes: also called X411
In the case of B1, the “Mean Signal Value” is 0 in test [1]; 0.0433 in test [2]; 0.00481 in test [3]; 0.00962 in test [4]; 0.0673 in test [5].
